Series [1] deals with nsp12 (RNA-dependent RNA polymerase);nsp7;nsp8 (SARS-CoV-2;SARS-CoV-2;SARS-CoV-2, UniProt P0DTD1;P0DTD1;P0DTD1 4393-5324;3860-3942;3943-4140, ||). The experiment in a line: EMSA. For orientation: A gel shift assay detects complexes by their altered migration in electrophoresis.
Series [2] addresses nsp12 (RNA-dependent RNA polymerase);nsp7;nsp8;nsp13 helicase (SARS-CoV-2;SARS-CoV-2;SARS-CoV-2;SARS-Co …, UniProt P0DTD1;P0DTD1;P0DTD1;P0DTD1 4393-5324;3860-3942;3943-4140;5325-5925, |||). As to the kind of experiment: EMSA.

B1: RNA scaffold (template-product, cryo-EM primer and template, Figure 1A) (dsRNA)
RNA 1: CUAUCCCCAUGUGAUUUUAAUAGCUUCUUAGGAGAAUGACGUAGCAUGCUACGCG
RNA 2: CGCGUAGCAUGCUACGUCAUUCUCCUAAGAAGCUA
On to B1, for which the binding result in series [1] and in series [2] was “binds” in each case.
